# Results from the supplement of paper PMC9170038.
# What was measured:
# MS2 coat protein [1] = test: apparent KD of MS2 coat protein, switch ON state; designed switch direction (-1 OFF switch, 1 ON switch): 1; higher = weaker reporter binding; settings: FMN input: 0 or 200 uM; Eterna round: R93 (includes R88 designs)
# Procedure, shortened: (§1)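 In 100 mM Tris-HCl pH 7.5 with 80 mM KCl and 4 mM MgCl2, and without or with constant ligand, SNAP-549-labelled MS2 coat protein was titrated in twofold steps from 0.7 or 1.5 nM to 3 µM. Per-step times went from 0.8–1.5 h down to 10–20 min. The RNA switches were transcribed on-chip from Illumina sequencing clusters, and apparent KD is the per-design median of normalised cluster binding-curve fits.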
# MS2 coat protein [2] = test: apparent KD of MS2 coat protein, switch OFF state (with FMN for OFF switches, without FMN for ON switches); designed switch direction (-1 OFF switch, 1 ON switch): 1; higher = weaker reporter binding; settings: FMN input: 0 or 200 uM; Eterna round: R93 (includes R88 designs)
# Procedure, shortened: as §1
Sequence,apparent KD of MS2 coat protein (MS2 coat protein [1]) [nM],apparent KD of MS2 coat protein (MS2 coat protein [2]) [nM]
AGGAGACAUGAGGAUCACCCAUGUGAGAAGAGGCGAGGAUAUCGAAAGAAAGAAGAGAAACGAGAAGGCGCGAGUC [salish99-SS1-030],25.6,37
AGGAGACAUGAGGAUCACCCAUGUGCGAGGUGAAGAGGAUAUAGAAGAAGAAGAAAGAAACUAGAAGGCUUAAAAA [JR_SameState1_Sub1],122,125
AUAAAACAUGAGGAUCACCCAUGUAAAAAUAUGGGAGGAUAUGCGAAAUAAAAUAAAUAAGCAGAAGGCCUAAAAA [SS! MT 19],11.9,174
AUAUGAGCUAUGGAGGAUAUCCAUAACAAGACAUGAGGAUCACCCAUGUAAGAAAGAAAAGAAUGGGAGAAGGCCAUAGCUCAAU [SS 2 M46],37.9,63.7
AUAUGAGCUAUUGAGGAUAUCCAUAACAAGACAUGAGGAUCACCCAUGUAAUCAAAACAAUAAUGGGAGAAGGCAAUAGCUCAAU [SS 2 M48],36.7,44.1
AUUACAUCUAGUUAGGAUAUCAGAUGUAAGACAUGAGGAUCACCCAUGUCCUAAGAAUAGGUAACUGAGAAGGAACAGGGAGUAU [JR_SS002_Sub418],23.4,26.8
CAUAGACAUGAGGAUCACCCAUGUAGAAUUAUGGGAGGAUAUACAAAGACGAGAGUCAGAGUAGAAGGCCUAGGAU [salish99-ss1-162],24.1,35.6
CAUCAUGCGCCUAAGGAUAUGUCCCACAAGACAUGAGGAUCACCCAUGUAGCCAAUUAAUACGGUGCAGAAGGUGGAGCGCAUGC [Qusotior],315,1080
CAUCAUGCGCCUAAGGAUAUGUCUCACAAGACAUGAGGAUCACCCAUGUAGAAUAAAUAAAUGAUGCAGAAGGUGGAGUGCAUGA [Inares],50.6,785
CAUCAUGCGCCUAAGGAUAUGUCUCACAAGACAUGAGGAUCACCCAUGUAGCCAAAAUAAACGAUGCAGAAGGUGGAGCACAUGC [Atrexe],271,602
CAUCAUGCGUCUAAGGAUAUGUCUCACAAGACAUGAGGAUCACCCAUGUAGAAUAAAUAAAUGAUGCAGAAGGUGGAGCGCAUGC [Erzausis],53.2,283
CGAAAGGAGAGAGAGGAUAUCCAAAGGAAAACAUGAGGAUCACCCAUGUAGAAGGUAGGAGAUUGGGAGAAGGCUCAAGAGAGGC [salish99-ss2-150],18.5,46.7
CGAAAGGAGAGAGAGGAUAUCCAAAGGAAAACAUGAGGAUCACCCAUGUAGAAGGUAGGAGAUUGGGAGAAGGCUCAAGCAAAAG [salish99-ss2-155],29,26.4
CGAUCACAUGAGGAUCACCCAUGUAUCGAUAAACGAGGAUAUGGGAGCGGGAUCUGUGGACCAGAAGGCGUACGGA [Celeus],23.4,38.7
CGCCAAUUGGCACAGGAUAUGAGCAUGCUCACAUGAGGAUCACCCAUGUGAUUACCAACGCAAAAUCAGAAGGGUGCCCUCGUCA [Beanza],69,92.6
CGGAGACAUGAGGAUCACCCAUGUGAGAAGAGGCGAGGAUAUCGAAAGAAAGAAGAGAAACGAGAAGGCGCGAGUG [salish99-SS1-074],21.9,32.9
CUAGUUGCAUACUAGGAUAUACACUGGGUGACAUGAGGAUCACCCAUGUAAAAGCACAUUCGGUAGUAGAAGGAGUGUGCAGGUC [Ceedesbi],92.6,68.8
CUUAGGAAGAGAGAGGAUAUCCAAAGGAAAACAUGAGGAUCACCCAUGUAAAAGGUAGGAAAUUGGGAGAAGGCUCAAGAGAGAG [salish99-ss2-080],26,31.8
GAAAAACAUGAGGAUCACCCAUGUAAAAAUAUGGGAGGAUAUUCAAACACGAAAGUCAAAGAAGAAGGCCUAAAAG [Garnet 2],30.4,207
GAAAAACAUGAGGAUCACCCAUGUAGAAAUAUGGAAGGAUAUACAAAGACGAAACUGAAAGUAGAAGGUCUAAAAG [Garnet 95],23.2,22.1
